Results from PMC2908537.

Key:
Assay in all cases: SPR; WT or point-mutant CRT immobilised on a biosensor chip at about 500 RU by primary amine coupling, SE 15mer peptides run as analyte; read-out RU, mean ± SEM; 25°C, 10 mM HEPES pH 7.4, 50 mM KCl, 0.5 mM CaCl2, 100 µM ZnCl2, 0.005% surfactant P-20, flow 10 µl/min
[1] = target: CRT E223A mutant, 6xHis-tagged (not stated (rabbit or mouse cDNA cloned)) (UniProt P14211)
[2] = target: CRT E217A mutant, 6xHis-tagged (not stated (rabbit or mouse cDNA cloned)) (UniProt P14211)
[3] = target: CRT N279A mutant, 6xHis-tagged (not stated (rabbit or mouse cDNA cloned)) (UniProt P14211)
[4] = target: CRT H224A mutant, 6xHis-tagged (not stated (rabbit or mouse cDNA cloned)) (UniProt P14211)
[5] = target: wild-type CRT, 6xHis-tagged, from the pBAD vector (not stated (rabbit or mouse cDNA cloned)) (UniProt P14211)
[6] = target: CRT D220A mutant, 6xHis-tagged (not stated (rabbit or mouse cDNA cloned)) (UniProt P14211)
[7] = target: CRT Y254A mutant, 6xHis-tagged (not stated (rabbit or mouse cDNA cloned)) (UniProt P14211)

Substance	RU [1]	RU [2]	RU [3]	RU [4]	RU [5]	RU [6]	RU [7]
SE-expressing 15mer synthetic peptide 65-79*0401	56.7 RU	50.9 RU	106 RU	68.2 RU	71.2 RU	70.1 RU	66.5 RU
SE-expressing 15mer synthetic peptide 65-79*0404	84.6 RU	106 RU	145 RU	128 RU	128 RU	120 RU	113 RU
